# In a protein production outcome set (Wang et al. 2014):
# Test: label from the status in PepcDB records
# 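Also: failed if final PepcDB status was selected cloned or expressed and not failed if soluble or beyond.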
row,Sequence,protein production
1,MDVFSEILNGIGRLLLQPALYVGIILVIIAGFNRVKWERKSFSISIYSPWLELKNFFGVSLLFGLVLSIITTLIGFSVMIEWIAIFNAVACFLLIVGMFRLSSTAFTIGITSLIFYFCYYFDVNLSPFTNLEFTYDAIFIDNFMISMTFLLAILLFVEAFLIQYTSAKNPSPSLRKSKRGKLVGSFQLRKLWFVPLVVFIPGDVFTKIFEWWPVFTIGSESYSLIILPLFIGFQQQVQAQLPEEASKKIAVQVTTLATIIAVAGLIGIVMPVLTLFAFMFAVIGRFWISYRHYRSEQLLPKKFGPQPDGLVVLGARESTPSTRLNLKAGEKITEVNGQKVHNREELYEALNLNRAFCKLKVIDNAGEPRFEQTALYENESFELGLLLVEPR,failed
2,MDVGESNERVKDDSALQASPRSPLSSIDLAIDGAMNASIEQLYHNVCEMESSDDQSPSRASFISYGAESRIDLELRHLVGDVGEEGESKKEIILEKKEESNGEGSLSQKKPLSNGKKVAKTSPNNPKMPGSRISSRKSPDLGKVSVDEESPELGVVLLKQARELVSSGENLNKALDLALRAVKVFEKCGEGEKQLGLNLVMSLHILAAIYAGLGRYNDAVPVLERSIEIPMIEDGEDHALAKFAGCMQLGDMYGLMGQVENSIMLYTAGLEIQRQVLGESDARVGETCRYLAEAHVQAMQFEEASRLCQMALDIHKENGAAATASIEEAADRKLMGLICDAKGDYEVALEHYVLASMAMSSQNHREDVAAVDCSIGDAYMSLARFDEAIFAYQKALAVFKQGKGETHSSVALVYVRLADLYNKIGKTRDSKSYCENALKIYLKPTPGTPMEEVATGFIEISAIYQSMNELDQALKLLRRALKIYANAPGQQNTIAGIEAQMGVVTYMMGNYSESYDIFKSAISKFRNSGEKKTALFGIALNQMGLACVQRYAINEAADLFEEAKTILEKECGPYHPDTLAVYSNLAGTYDAMGRLDDAIEILEYVVGTREEKLGTANPEVEDEKQRLAALLKEAGRGRSKRNRALLTLLDNNPEIANGQRPVY,failed
3,MDVGVVRPQRTEAGWDGGVAPRAGPTRRREACTAYVQRVAGGSGLPEGSSGSEPGPGRSRERPGDAAGGSGNAGCCACPVVSETGGDWLTDSTNRAFSVPGDFQGRRQAEGKTQKVRVQSTGKVPPFPVMKLQVLVLLMSWFGVLSWVQAEFFTSIGHMTDLIYAEKDLVQSLKEYILAEEAKLSKIKSWASKMEALTSKSAADPEGYLAHPVNAYKLVKRLNTDWPALGDLVLQDAAAGFVANLSVQRQFFPTDEDESGAARALMRLQDTYKLDPDMISRGELPGTKYQAMLSVDDCFGMGRSAYNEGDYYHTVLWMEQVLKQLDAGEEATVTKSLVLDYLSYAVFQLGDLHRAVELTRRLLSLDPSHERAGGNLRYFERLLEEERGKSLSNQTDAGLASQENLYERPVDYLPERDVYESLCRGEGIKMTPRRQKRLFCRYHHGNRVPQLLIAPFKEEDEWDSPHIVRYYDVMSDEEIERIKEIAKPKLARATVRDPKTGVLTVASYRVSKSSWLEEDDDPVVARVNRRMQHITGLTVKTAELLQVANYGMGGQYEPHFDFSRSDERDAFKRLGTGNRVATFLNYMSDVEAGGATVFPDLGAAIWPKKGTAVFWYNLLRSGEGDYRTRHAACPVLVGCKWVSNKWFHERGQEFLRPCGTTEVD,failed
4,MDVMRSVLGMVVLLTIAFLLSVNKKKISLRTVGAALVLQVVIGGIMLWLPPGRWVAEKVAFGVHKVMAYSDAGSAFIFGSLVGPKMDTLFDGAGFIFGFRVLPAIIFVTALVSILYYIGVMGILIRILGGIFQKALNISKIESFVAVTTIFLGQNEIPAIVKPFIDRLNRNELFTAICSGMASIAGSTMIGYAALGVPVEYLLAASLMAIPGGILFARLLSPATESSQVSFNNLSFTETPPKSIIEAAATGAMTGLKIAAGVATVVMAFVAIIALINGIIGGVGGWFGFEHASLESILGYLLAPLAWVMGVDWSDANLAGSLIGQKLAINEFVAYLNFSPYLQTAGTLDAKTVAIISFALCGFANFGSIGVVVGAFSAVAPHRAPEIAQLGLRALAAATLSNLMSATIAGFFIGLA,failed
5,MDVTGKSLKRILLSLAVFCILITGPGIACAEEATTQEKEILFSDYFKSMMDMAQDKYKGEITEKQMLEGALKGIFSTMDSYTVYYTVEESQDFFTDINGSYTGIGVVMSEVDGKIVIDKVYPSSPAEEAGIKKGDVIAQVDGKSVENLSLEEVAGLIKGPSGTKVVIGVLRNGTDGVIELEVTRRQIIINPVTHKIEGDIGYIKLESFNSNASKAMEEALKQMDKNNIKKIILDLRDNPGGDVGQAVSIARKFVKKGLITKLDFKSESQKDEEYYSYLEELKYKLVVLVNENSASASEILAGAIQDTGSGILVGTTTFGKGKVQNLYPILTPEAVEKYRKETGETFVNGYDLLEKHGIYPSDEEIIGWVKITTGEYYTPNGRMIDGVGLEPDVYVENEPEGKYKILEGVEKLRKVTKPSLNAQSEDVLNAEKILSALGYDVDTPDNLMDEKTVKAVAEFQRDCGLYSYGVLDFATQQALNDKLDELLLVKNRDKQYEKAVELLEN,failed
6,MDVTWTVKYITEFVGTALLIIMGNGAVANVELKGTKAHAQSWMIIGWGYGLGVMLPAVAFGNITSQINPAFTLGLAASGLFPWAHVAQYIIAQVLGAMFGQLLIVMVYRPYYLKTQNPNAILGTFSTIDNVDDNDKKTRLGATINGFLNEFVGSFVLFFGAVAATNIFFGSQSITWMTNYLKGQGADVSSSDIMNQIWVQASGASASKMVAHLFLGFLVMGLVVALGGPTGPGLNPARDFGPRLVHSLLPKSVLGEAKGSSKWWYAWVPVLAPILASLAAVALFKMIYL,failed
7,MDWLLTPGPVRLHPKALEALARPQLHHRTEAAREVFLKARGLLREAFRTEGEVLILTGSGTLAMEALVKNLFAPGERVLVPVYGKFSERFYEIALEAGLVVERLDYPYGDTPRPEDVAKEGYAGLLLVHSETSTGALADLPALARAFKEKNPEGLVGADMVTSLLVGEVALEAMGVDAAASGSQKGLMCPPGLGFVALSPRALERLKPRGYYLDLARELKAQKEGESAWTPAINLVLAVAAVLEEVLPRLEEHLALKAWQNALLYGVGEEGGLRPVPKRFSPAVAAFYLPEGVPYARVKEAFAQRGAVIAGGQGPLKGKVFRLSLMGAYDRYEALGVAGMFREVLEEILPAS,not failed
8,MDYFRSPDGPMFMIICGEGPCSGIANDYINESLNKKLNISSGGSDNPWFFFGISYSGALSAWFRLKFPHLTCGSLASSAVVRAIYEFSEFDQQIGESAGQECKLALQETNKLLELGLKVKNKAVKSLFNATELDVDADFLYLTADAAVMAFQYGNPDKLCVPLVEAKKNGSDLVVTYSTYVREYCMRIWGLRVRTYNRKHLRNTVVTADSAYRLWWFQACTELGYFQVAPKYDSVRSHQINTTFHLDLCKSLFGKDVYPKVDATNLYYGGDRLAATKIIFTNGSEDPWRHASKQNSTHEMPSYIIKCRNCGHGSDIRGCPQSPMVIEGKSNNCSLPDYVNKVRQQMVEHIDLWLSECRQSIRSSI,not failed
9,MDYPVWQLWGINGGLLVAIISVLHVFVAQFAVGGGFLLVHAATRAERAGSAEATFWVKRFTRFFLLLSMVFGGVSGVGIWVIISLISPAATSLLVHRFVYAWATEWVFFLGEIVALLVYYYGFGKMRFEDHRNVGLLYGLFAYLSLFMINGIITFMLTPGAWMQTQGFWDGFFNPTFWPSLLFRSALCAMLSGLFGLVWASLIDDERARELMTGVTRLWALVPIPFMAVGAWWYLGALPAPQLEMVLRRTADIRPFLEAFPWVLAALMVGGLAFFTRLPSGARVPVAALLLVLGLCQVGTFEWVRETGRRPWIVHGVIWSNGITPEAGAKSDLEGMLKVARWSGVKQVAEANMHEAGRELWQVQCANCHGLGAPMIDILPRIANRPLTGVEALITGQGALQGYMPPFVGTPAERRALATYLVNERDARRH,failed
10,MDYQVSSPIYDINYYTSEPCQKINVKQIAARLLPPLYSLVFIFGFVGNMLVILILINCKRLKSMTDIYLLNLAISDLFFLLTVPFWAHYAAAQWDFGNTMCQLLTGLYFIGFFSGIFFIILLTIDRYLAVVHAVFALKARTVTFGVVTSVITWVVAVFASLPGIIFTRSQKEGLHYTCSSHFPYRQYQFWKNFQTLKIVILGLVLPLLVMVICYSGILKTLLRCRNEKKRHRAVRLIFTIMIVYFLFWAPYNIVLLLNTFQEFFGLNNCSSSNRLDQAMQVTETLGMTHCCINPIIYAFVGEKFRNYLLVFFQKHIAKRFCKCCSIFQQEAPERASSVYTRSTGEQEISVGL,not failed
11,MDYSIADCLAANQYTTACCIVQSWTRGEVLLSSYQRVALFIFFDSIEKDLVTHIRSLAGLVTTGFLSAQERDKAAQRAEKSDEPGTVAKDDFELLYQLDLGDKIAIAQRLKQHFGDAFRKHFSAKAASLQAAVPVRNSVMHGRPLTVEEHATAFALANDLVKSNGFWPVLHKALVDYNTDPEAITRRAVSFLEHPSEGGIFHNLPLPDYDDTGFVPRPQLEQELKKKILSRHPVVTVLGDGGNGKTALTVQALYSLVNSGDHDFDAIVWVSAKSSKLTVGEIQRIEHAITTSMGLFEEVVGIFEEDKSNPMSRVRQLLENNKILLAIDNLETVLDDTIRDFVSDIPGQSKVVLTSRIPVGGDLTVEVKPLTDNEGEIYLRALIKSYSIKTLSSLRQDELRYFASRLERRPLLLKWFCMGVIAGLPASKIVSNPEMALRFCLENVFDALSPDATMTLSLMSILPRAVSLGVLHYVSSTDIRKLEAGVAELLKFSILETENQSGYELNYRIKPFARAYVARILRLTAEAQEAVIRKFRGLSFAYQAERGAEGQEKYNFRNFTVRSISEALAAGKLREAVKLAYNDEFEAANAIIDTLKVSNHDYFEVFRTDAFIRFRQHDFAGATDAYRSALELSPETPQLYFFFGGFLLRGYGDCPAAIAQFEEALKRDPESTDVKRELARAKMFDYDFEGAMKILSLERTKPLSNMRTQLIFADLQTQNFQRMITHKSAVGIDADLEAPCSAFADFLVTLDPRIVDSKMTEHLRKARSSIVQALHTRSVRAGARVVALLDKLIGELEASRDDTTDHCASASGLLGTLKEKGRKPNFGFLVDRSNREYFVARAMVSDLVWEGLEGGKIASFEVELDNQGRPRATNVYLI,failed
12,MDYVVSYLSIEFGLCFILFFVLYWGLGFSLRLQNVLLLVASYAILASFSLNFLYILLGYTALVYLLGLLSQRYPGRGWVNGLMLLLVLGAFYLFKYQDFFTSTVQNAFAQFGVEVSLPLLEVLLPVGLSFYAFHSVSYLVSINRRELTPGSPFDLALYLAFFPSLIAGPVNRAIPMLAQINPPQLRQVLEPQRALGLIAVAVVKLFFLSSWLANEWVDPVFDSPVAYSAEQILRAVYGYSFLIYFNFSGYTDLVTGIALLLGFRLPQNFNYPYAARNLKEFWGRWHISLSTFIRDYVYIPLGGNRGPVWRGNLNMLLAMLISGLWHGASANFIIWGALHGIGLALYKLCSPLLARGPSWIGADLMARLLTFHYVAFAWIFFRCATLSDAMDMLKGLGELSLGGLLGGGASLLGCLLFVAFYPRIVALLRRLFDAATGLPWLFYPVPLGLFICVVIFASPSGVPGFIYASF,failed
13,MEAETKTLPLENASILSEGSLQEGHRLWIGNLDPKITEYHLLKLLQKFGKVKQFDFLFHKSGALEGQPRGYCFVNFETKQEAEQAIQCLNGKLALSKKLVVRWAHAQVKRYDHNKNDKILPISLEPSSSTEPTQSNLSVTAKIKAIEAKLKMMAENPDAEYPAAPVYSYFKPPDKKRTTPYSRTAWKSRR,failed
14,MEAIDQLVGQWQKDGLSPSQVAEKFSKCVLYVTCEPCIMCASALSFLGIKEVYYGCPNDKFGGCGSILSLHLGSEEAQRGKGYKCRGGIMAEEAVSLFKCFYEQGNPNAPKPHRPVVQRERT,failed
